T1: EEA-1 (mouse (endogenous in bEnd3), UniProt Q8BL66 1-1411)
T1 construct: EEA-1 (early endosome marker), endogenous in mouse brain endothelial cells (bEnd3); also called early endosomes (EEA-1); source: endogenous, bEnd3 mouse brain endothelial cells (fixed, permeabilized)
T1 sequence (looked up): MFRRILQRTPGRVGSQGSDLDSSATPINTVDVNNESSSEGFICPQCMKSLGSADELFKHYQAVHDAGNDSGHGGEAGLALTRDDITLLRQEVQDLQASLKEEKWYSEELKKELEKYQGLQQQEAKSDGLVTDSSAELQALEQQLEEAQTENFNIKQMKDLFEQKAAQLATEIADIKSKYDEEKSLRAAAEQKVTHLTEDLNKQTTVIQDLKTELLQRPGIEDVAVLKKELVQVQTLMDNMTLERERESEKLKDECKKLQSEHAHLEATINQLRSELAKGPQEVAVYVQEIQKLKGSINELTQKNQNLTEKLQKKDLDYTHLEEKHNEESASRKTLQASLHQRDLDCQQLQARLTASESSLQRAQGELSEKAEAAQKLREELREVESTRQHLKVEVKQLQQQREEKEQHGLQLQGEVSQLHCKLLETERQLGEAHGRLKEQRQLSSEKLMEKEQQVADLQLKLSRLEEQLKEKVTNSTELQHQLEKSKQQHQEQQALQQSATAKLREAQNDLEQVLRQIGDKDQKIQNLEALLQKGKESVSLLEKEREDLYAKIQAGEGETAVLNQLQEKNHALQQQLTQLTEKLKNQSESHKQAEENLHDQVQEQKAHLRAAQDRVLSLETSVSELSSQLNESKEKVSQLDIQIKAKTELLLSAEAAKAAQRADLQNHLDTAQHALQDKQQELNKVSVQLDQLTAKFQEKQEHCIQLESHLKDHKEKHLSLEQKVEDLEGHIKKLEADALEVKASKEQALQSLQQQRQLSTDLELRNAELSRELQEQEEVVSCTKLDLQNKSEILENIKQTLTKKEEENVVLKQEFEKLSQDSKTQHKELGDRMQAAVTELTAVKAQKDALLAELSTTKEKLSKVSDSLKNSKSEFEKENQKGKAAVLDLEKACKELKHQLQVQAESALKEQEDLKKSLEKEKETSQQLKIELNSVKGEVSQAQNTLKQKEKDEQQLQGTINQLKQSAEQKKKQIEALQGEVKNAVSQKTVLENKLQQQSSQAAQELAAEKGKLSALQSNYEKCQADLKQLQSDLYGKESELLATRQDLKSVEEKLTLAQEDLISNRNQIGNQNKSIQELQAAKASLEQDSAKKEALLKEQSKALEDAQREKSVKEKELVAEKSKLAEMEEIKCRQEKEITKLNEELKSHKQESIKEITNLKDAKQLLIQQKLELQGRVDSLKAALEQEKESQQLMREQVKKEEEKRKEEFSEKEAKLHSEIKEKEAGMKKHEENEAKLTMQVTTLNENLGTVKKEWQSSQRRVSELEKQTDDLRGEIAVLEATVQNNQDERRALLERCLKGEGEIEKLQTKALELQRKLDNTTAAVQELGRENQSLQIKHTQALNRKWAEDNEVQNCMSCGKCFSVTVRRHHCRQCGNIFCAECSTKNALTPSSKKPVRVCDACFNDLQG

T2: dynamin-2 (mouse (endogenous in bEnd3), UniProt P39054 1-870)
T2 construct: dynamin-2, endogenous in mouse brain endothelial cells (bEnd3); source: endogenous, bEnd3 mouse brain endothelial cells (fixed, permeabilized)
T2 sequence (looked up): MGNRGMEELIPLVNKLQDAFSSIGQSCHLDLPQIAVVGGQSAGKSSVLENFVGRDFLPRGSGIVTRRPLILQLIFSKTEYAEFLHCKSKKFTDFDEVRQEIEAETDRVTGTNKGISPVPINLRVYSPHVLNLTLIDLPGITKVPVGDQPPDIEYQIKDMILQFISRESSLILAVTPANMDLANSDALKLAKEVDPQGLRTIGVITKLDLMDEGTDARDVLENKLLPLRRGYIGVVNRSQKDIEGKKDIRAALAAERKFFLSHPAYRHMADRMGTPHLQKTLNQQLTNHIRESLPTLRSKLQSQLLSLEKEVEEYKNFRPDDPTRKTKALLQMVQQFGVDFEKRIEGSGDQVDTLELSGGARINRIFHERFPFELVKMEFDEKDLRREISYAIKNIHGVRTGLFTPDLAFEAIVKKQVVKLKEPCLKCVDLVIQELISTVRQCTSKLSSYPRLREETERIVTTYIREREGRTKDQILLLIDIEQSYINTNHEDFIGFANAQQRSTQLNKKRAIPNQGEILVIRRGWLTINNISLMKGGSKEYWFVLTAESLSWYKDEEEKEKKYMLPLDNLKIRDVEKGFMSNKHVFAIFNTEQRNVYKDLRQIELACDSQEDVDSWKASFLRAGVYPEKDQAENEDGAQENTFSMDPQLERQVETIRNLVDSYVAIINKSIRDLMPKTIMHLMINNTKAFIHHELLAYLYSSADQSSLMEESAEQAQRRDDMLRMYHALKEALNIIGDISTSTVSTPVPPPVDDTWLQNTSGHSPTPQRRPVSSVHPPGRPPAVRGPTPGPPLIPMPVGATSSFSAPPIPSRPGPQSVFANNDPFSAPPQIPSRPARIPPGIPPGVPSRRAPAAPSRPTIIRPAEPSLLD

B1: apolipoprotein E (ligand, mouse (endogenous in bEnd3), UniProt P08226 19-311, looked up)
chain: EGEPEVTDQLEWQSNQPWEQALNRFWDYLRWVQTLSDQVQEELQSSQVTQELTALMEDTMTEVKAYKKELEEQLGPVAEETRARLGKEVQAAQARLGADMEDLRNRLGQYRNEVHTMLGQSTEEIRARLSTHLRKMRKRLMRDAEDLQKRLAVYKAGAREGAERGVSAIRERLGPLVEQGRQRTANLGAGAAQPLRDRAQAFGDRIRGRLEEVGNQARDRLEEVREHMEEVRSKMEEQTQQIRLQAEIFQARLKGWFEPIVEDMHRQWANLMEKIQASVATNPIITPVAQENQ
notes: apolipoprotein E (ApoE), detected in mouse brain endothelial cells (bEnd3); also called ApoE; source: endogenous, bEnd3 mouse brain endothelial cells (fixed, permeabilized)

How the values were obtained:
Experiment in all cases: proximity ligation; Duolink PLA between two endogenous proteins in polarized bEnd3 monolayers, fixed in 4% PFA and permeabilized with 0.1% Triton X-100; two primary antibodies overnight at 4°C; PLA signal normalized by the number of nuclei; also in shRNA control (scramble) and syndapin-2 knockdown cells, and after FAM-Aβ (1–40) or Aβ monomers, oligomers or fibrils for 15 min
Conditions in all cases: partners not purified
heavy chain of clathrin = target: T3, heavy chain of clathrin (mouse (endogenous in bEnd3), UniProt Q68FD5 1-1675)
T3 construct: clathrin heavy chain, endogenous in mouse brain endothelial cells (bEnd3); source: endogenous, bEnd3 mouse brain endothelial cells (fixed, permeabilized)

EEA-1 = target: T1, EEA-1
dynamin-2 = target: T2, dynamin-2
apolipoprotein E = target: B1
[1] = target: T4, low-density lipoprotein receptor-related protein 1 (mouse (endogenous in bEnd3), UniProt Q91ZX7 20-4545)
T4 construct: low-density lipoprotein receptor-related protein 1 (LRP1), endogenous in mouse brain endothelial cells (bEnd3); also called LRP1; source: endogenous, bEnd3 mouse brain endothelial cells (fixed, permeabilized)

β-actin = β-actin (mouse (endogenous in bEnd3), UniProt P60710 1-375)

T4 sequence (Q91ZX7 20-4545): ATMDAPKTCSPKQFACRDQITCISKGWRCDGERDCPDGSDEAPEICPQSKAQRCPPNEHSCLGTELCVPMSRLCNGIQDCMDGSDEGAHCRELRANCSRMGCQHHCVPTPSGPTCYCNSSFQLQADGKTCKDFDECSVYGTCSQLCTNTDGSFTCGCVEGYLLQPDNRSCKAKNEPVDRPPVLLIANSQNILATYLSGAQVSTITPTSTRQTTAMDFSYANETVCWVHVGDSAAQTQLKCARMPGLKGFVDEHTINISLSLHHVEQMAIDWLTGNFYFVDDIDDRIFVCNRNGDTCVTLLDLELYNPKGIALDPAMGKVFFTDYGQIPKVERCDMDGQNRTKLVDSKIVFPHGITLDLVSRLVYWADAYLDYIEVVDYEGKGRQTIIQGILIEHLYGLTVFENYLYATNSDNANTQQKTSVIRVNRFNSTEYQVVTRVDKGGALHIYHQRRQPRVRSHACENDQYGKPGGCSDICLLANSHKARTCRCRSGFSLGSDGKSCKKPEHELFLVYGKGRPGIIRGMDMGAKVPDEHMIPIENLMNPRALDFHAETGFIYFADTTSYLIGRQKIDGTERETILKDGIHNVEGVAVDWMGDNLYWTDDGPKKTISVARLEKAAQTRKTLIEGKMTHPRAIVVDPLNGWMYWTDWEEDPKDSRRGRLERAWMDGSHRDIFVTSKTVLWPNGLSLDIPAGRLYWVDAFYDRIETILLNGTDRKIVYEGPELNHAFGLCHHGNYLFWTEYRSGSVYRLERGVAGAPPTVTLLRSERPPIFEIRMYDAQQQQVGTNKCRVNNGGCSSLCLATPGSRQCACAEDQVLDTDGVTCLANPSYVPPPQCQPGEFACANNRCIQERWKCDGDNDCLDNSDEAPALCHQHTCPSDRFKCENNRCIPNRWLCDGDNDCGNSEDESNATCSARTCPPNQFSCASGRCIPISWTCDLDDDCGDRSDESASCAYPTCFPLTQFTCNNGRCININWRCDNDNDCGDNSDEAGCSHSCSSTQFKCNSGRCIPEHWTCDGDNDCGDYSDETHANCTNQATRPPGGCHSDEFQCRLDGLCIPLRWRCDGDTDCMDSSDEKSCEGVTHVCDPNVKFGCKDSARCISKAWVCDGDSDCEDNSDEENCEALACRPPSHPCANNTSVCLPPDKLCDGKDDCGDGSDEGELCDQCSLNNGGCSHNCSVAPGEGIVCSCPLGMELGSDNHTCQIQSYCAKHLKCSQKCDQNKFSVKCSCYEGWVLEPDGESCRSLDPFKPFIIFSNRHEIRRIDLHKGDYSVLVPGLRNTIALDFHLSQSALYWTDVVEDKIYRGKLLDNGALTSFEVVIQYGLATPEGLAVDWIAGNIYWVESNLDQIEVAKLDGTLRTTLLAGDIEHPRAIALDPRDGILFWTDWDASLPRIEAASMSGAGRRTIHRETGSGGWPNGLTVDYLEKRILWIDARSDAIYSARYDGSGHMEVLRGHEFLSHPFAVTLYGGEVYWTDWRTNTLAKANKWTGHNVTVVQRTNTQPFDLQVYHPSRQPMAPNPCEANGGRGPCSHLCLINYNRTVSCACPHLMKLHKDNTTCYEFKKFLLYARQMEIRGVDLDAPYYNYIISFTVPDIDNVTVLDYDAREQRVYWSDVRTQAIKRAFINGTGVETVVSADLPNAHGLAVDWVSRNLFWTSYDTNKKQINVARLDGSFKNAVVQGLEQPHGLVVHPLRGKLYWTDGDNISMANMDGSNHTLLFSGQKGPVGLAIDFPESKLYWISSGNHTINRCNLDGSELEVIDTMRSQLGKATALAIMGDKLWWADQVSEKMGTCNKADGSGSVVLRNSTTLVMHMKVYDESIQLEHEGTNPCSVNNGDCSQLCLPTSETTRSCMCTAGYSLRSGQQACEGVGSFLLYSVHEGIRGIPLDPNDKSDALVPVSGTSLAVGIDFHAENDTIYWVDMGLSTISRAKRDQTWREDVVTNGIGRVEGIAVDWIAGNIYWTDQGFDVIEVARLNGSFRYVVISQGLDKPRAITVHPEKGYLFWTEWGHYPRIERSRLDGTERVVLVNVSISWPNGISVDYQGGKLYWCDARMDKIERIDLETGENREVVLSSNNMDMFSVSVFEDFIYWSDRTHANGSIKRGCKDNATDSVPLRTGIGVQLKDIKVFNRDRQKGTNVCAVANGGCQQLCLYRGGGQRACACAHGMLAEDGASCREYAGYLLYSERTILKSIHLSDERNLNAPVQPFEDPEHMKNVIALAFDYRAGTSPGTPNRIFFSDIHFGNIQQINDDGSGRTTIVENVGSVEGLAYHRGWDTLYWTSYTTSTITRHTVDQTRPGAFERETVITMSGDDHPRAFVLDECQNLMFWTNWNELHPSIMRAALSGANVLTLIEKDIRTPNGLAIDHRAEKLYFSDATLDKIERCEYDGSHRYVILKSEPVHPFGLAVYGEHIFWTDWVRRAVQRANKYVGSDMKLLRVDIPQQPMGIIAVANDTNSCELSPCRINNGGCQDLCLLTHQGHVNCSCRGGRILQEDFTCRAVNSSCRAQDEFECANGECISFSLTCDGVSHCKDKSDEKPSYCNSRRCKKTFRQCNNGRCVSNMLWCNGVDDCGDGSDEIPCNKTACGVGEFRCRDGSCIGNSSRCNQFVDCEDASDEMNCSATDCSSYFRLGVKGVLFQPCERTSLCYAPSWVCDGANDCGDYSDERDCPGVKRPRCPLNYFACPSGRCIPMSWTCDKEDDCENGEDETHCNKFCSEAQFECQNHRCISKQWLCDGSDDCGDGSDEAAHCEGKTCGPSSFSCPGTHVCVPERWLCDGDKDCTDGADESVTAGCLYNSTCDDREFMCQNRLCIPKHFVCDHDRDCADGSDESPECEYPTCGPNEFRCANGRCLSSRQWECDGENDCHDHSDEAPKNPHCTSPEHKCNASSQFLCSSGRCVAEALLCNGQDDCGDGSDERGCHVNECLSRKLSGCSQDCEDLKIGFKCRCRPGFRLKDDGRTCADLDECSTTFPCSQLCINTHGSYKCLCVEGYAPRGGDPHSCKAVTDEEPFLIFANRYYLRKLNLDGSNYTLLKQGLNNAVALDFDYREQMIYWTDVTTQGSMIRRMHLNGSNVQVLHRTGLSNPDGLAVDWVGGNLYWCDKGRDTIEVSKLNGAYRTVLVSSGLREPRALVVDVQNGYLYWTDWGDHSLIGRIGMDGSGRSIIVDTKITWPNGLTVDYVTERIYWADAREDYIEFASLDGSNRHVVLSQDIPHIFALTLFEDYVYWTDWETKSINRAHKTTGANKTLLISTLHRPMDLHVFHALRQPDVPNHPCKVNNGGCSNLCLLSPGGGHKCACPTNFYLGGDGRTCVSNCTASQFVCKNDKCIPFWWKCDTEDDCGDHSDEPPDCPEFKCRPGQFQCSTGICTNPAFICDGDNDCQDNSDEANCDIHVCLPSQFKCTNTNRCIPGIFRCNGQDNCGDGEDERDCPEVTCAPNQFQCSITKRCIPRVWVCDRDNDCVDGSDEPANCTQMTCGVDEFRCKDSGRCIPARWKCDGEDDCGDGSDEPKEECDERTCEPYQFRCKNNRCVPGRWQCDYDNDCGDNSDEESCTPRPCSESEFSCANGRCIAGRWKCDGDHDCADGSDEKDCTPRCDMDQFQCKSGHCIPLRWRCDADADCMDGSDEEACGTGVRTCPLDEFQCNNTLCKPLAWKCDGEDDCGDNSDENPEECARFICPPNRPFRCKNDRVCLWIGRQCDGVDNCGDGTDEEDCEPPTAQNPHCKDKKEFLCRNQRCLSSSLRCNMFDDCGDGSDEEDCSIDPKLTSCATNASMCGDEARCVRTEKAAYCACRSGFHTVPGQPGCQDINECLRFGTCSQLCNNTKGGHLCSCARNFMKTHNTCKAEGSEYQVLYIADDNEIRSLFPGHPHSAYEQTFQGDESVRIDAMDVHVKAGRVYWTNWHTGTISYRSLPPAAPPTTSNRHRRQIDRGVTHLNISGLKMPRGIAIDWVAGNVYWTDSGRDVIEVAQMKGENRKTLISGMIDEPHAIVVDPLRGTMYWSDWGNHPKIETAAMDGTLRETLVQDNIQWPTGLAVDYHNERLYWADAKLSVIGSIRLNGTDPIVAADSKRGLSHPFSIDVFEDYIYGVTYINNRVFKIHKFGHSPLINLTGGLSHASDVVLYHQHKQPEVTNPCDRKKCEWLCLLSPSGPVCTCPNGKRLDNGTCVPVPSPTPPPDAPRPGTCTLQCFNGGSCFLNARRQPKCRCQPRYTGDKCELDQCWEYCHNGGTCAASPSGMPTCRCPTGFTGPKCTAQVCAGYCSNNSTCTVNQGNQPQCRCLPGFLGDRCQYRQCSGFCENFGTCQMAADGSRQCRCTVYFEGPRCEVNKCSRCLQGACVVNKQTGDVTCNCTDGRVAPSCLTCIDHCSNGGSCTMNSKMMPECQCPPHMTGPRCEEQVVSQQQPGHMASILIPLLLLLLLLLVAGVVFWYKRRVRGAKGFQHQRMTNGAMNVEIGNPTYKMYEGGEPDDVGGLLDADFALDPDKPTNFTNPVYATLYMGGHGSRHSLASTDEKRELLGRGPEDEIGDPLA

| Binder | PLA dots per cell (heavy chain of clathrin) | PLA dots per cell (EEA-1) | PLA dots per cell (dynamin-2) | PLA dots per cell (apolipoprotein E) | PLA dots per cell [1] | PLA dots per cell (β-actin) |
| --- | --- | --- | --- | --- | --- | --- |
| syndapin-2 (natural protein, mouse (endogenous in bEnd3), UniProt Q9WVE8 1-486, looked up, syndapin-2 (PACSIN-2), F-BAR protein, endogenous in mouse brain endothelial cells (bEnd3); also called PACSIN-2; Syn-2; source: endogenous, bEnd3 mouse brain endothelial cells (fixed, permeabilized)) MSVTYDDSVGVEVSSDSFWEVGNYKRTVKRIDDGHRLCGDLMNCLHERARIEKAYAQQLTEWARRWRQLVEKGPQYGTVEKAWIAVMSEAERVSELHLEVKASLMNEDFEKIKNWQKEAFHKQMMGGFKETKEAEDGFRKAQKPWAKKLKEVEAAKKAHHTACKEEKLAISREANSKADPSLNPEQLKKLQDKIEKCKQDVLKTKDKYEKSLKELDQTTPQYMENMEQVFEQCQQFEEKRLRFFREVLLEVQKHLDLSNVASYKTIYRELEQSIKAADAVEDLRWFRANHGPGMAMNWPQFEEWSADLNRTLSRREKKKAVDGVTLTGINQTGDQSGQNKPGSNLSVPSNPAQSTQLQSSYNPFEDEDDTGSSISEKEDIKAKNVSSYEKTQTYPTDWSDDESNNPFSSTDANGDSNPFDEDTTSGTEVRVRALYDYEGQEHDELSFKAGDELTKIEDEDEQGWCKGRLDSGQVGLYPANYVEAIQ | ~150 dots per cell | < 20 dots per cell | ~150 dots per cell | ~250 dots per cell | ~250 dots per cell | ~150 dots per cell |
| B1 |  |  |  |  | ~80 dots per cell |  |

— article PMC8882007, “Syndapin-2 mediated transcytosis of amyloid-β across the blood–brain barrier” (Brain Communications, 2022)
